A value given as a limit tells only on which side of the number the result lay.

For assay [1], the target named is T1, human CHL-1 (residues 25-1096 with a C-terminal 10xHis tag) (human, UniProt O00533 25-1096).
T1 construct: range 25-1096; also called L1CAM-2; L1CAM2
T1 sequence: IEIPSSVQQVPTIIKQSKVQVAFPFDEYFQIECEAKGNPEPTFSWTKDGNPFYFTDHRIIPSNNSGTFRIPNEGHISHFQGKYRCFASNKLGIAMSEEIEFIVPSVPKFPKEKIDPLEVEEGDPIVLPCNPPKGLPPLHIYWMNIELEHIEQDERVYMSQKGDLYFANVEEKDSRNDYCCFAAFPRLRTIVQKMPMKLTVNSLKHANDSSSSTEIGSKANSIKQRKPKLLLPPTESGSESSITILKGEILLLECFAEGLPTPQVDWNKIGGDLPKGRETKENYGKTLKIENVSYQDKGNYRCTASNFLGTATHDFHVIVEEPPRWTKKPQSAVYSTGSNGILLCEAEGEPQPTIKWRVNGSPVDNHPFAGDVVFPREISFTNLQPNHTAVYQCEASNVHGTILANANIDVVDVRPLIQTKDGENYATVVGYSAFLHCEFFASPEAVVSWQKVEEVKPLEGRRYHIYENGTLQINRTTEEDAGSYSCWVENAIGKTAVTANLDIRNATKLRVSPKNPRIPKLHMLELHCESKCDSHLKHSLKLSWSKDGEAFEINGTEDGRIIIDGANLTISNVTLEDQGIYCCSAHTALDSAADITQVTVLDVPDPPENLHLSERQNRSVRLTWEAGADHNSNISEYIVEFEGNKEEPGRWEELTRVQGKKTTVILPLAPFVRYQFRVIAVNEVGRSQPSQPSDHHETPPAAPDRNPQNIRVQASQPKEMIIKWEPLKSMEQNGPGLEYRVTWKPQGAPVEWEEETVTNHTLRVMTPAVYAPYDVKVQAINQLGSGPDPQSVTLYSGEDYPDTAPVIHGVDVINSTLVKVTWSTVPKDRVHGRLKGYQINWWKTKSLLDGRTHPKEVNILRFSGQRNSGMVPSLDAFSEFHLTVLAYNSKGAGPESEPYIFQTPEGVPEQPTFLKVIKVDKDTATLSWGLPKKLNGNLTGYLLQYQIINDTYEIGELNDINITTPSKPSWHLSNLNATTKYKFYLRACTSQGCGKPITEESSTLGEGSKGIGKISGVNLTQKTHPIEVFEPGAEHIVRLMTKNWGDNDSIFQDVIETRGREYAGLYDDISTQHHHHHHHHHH
Kind of assay: ELISA, plates coated with human CHL-1. The text has this: Selectivity. […] These proteins are other members of the L1 family of cell adhesion proteins and have between 49% and 55% sequence similarity with L1CAM in the extracellular portion. […] Positive control antibodies were included for each homolog. […] Epitope. The extracellular portion of L1CAM contains six immunoglobulin-like (Ig) domains and five fibronectin type III (FN) domains. To narrow down the binding region of the development candidate mAbs, truncated versions of human L1CAM protein (Ig domain, residues 21-605; FN domain, residues 606-1116; each with a C-terminal 6×His tag) were recombinantly produced, followed by a BLI experiment to test binding at 50 and 100 nM. […] 6×His tag is set forth in SEQ ID NO: 316.
For orientation: ELISA stands for enzyme-linked immunosorbent assay.

The target of assay [2] is T2, human L1CAM on cells (human, UniProt P32004 20-1257).
T2 construct: Overexpressed on stably transfected HEK293T cells or endogenous on MCF-7 and MDA-MB-231 cells; also called HEK293T-hL1CAM
Nature of the assay: flow cytometry, MDA-MB-231 cells, AlexaFluor 647 anti-human Fc secondary. The protocol:
(§1) Binding to L1CAM on Cells. […] Cells were then incubated with an AlexaFluor 647 goat anti-human Fc secondary antibody. After washing, the stained cells were analyzed by flow cytometry.
(§2) The binding curves for each antibody and cell line normalized to secondary antibody only staining (MFI ratio) are shown in FIGS. 14A-14C. EC50 values were determined by non-linear regression (Table 70). […] It is possible that differences in the conformation and oligomerization of L1CAM, depending on the surface expression level, contributed to the binding pattern. […] An avidity effect due to high levels of L1CAM surface expression may have contributed to the strong binding observed in this experiment.
On the technique in general: In flow cytometry, cells or beads pass a laser one at a time.

For assay [3], the target named is T3, extracellular domain of human L1CAM (isoform 1) fused to a poly-histidine tag via its carboxy terminus (human, UniProt P32004 20-1120).
T3 construct: Bought (Creative Biomart); also called L1CAM-His; huL1CAM protein
Kind of assay: BLI (Octet Red96e), His-tagged human L1CAM on Ni-NTA biosensors, mAb as analyte, 1:1 fit. The protocol:
(§3) Binding to L1CAM in Solution. Affinity to human L1CAM was measured by BLI using an Octet Red96e instrument. […] The data was prepared by reference well subtraction, and response curves were globally fit to a 1:1 Langmuir binding model.
Background: Biolayer interferometry detects binding as a change in optical thickness at a sensor tip.

The target of assay [4] is T2, human L1CAM on cells. Nature of the assay: summary table; binding to cells with endogenous L1CAM (MDA-MB-231). The method, then:
as §1, §2

Assay [5] concerns the target T4, soluble mouse L1CAM (monomer), His-tagged (mouse, UniProt P11627 20-1123, limits assumed).
T4 construct: read as mouse
Kind of assay: BLI (Octet Red96e), His-tagged L1CAM on Ni-NTA biosensors, mAb as analyte. The protocol: Cross-reactivity to Mouse L1CAM. Affinity to mouse L1CAM was measured by BLI using an Octet Red96e instrument. […] The data was prepared by reference well subtraction, and response curves were globally fit to a 1:1 Langmuir binding model.

Assay [6] addresses T5, soluble cynomolgus monkey L1CAM, His-tagged, monomeric (cynomolgus monkey, UniProt A0A2K5URB5 20-1120).
T5 construct: also called cyL1CAM protein; cynomolgus L1CAM-His
Kind of assay: BLI (Octet Red96e), His-tagged cynomolgus L1CAM on Ni-NTA biosensors, mAb as analyte, 1:1 fit. The protocol: (§4) Cross-reactivity to Cynomolgus Monkey L1CAM. Affinity to cynomolgus L1CAM was measured by BLI using an Octet Red96e instrument. […] The data was prepared by reference well subtraction, and response curves were globally fit to a 1:1 Langmuir binding model.

For assay [7], the target named is T3, extracellular domain of human L1CAM …. Nature of the assay: summary table; binding to soluble human L1CAM (monomer). The protocol: as §3
The target in assay [8] is T5, soluble cynomolgus monkey L1CAM, …. Kind of assay: BLI, cynomolgus against human L1CAM-His. The method, then:
as §4

In assay [9] the target is T2, human L1CAM on cells. Nature of the assay: summary table; binding to cells overexpressing human L1CAM (HEK293T). The method, then:
as §1, §2

Assay [10] addresses T2, human L1CAM on cells. Kind of assay: summary table; binding to cells with endogenous L1CAM (MCF-7). The protocol: as §1, §2
For assay [11], the target named is T2, human L1CAM on cells. Nature of the assay: flow cytometry, MCF-7 cells, AlexaFluor 647 anti-human Fc secondary. The protocol: as §1, §2
Assay [12] concerns the target T6, mouse L1CAM on transiently transfected HEK293FT cells (mouse, UniProt P11627 20-1260).
T6 construct: whole, on cells; also called mouse L1CAM on cells
Nature of the assay: flow cytometry, cells transfected with mouse L1CAM.

Assay [13] concerns the target T3, extracellular domain of human L1CAM …. Nature of the assay: BLI, His-tagged human L1CAM. The method, then: as §3
Assay [14] concerns the target T5, soluble cynomolgus monkey L1CAM, …. Kind of assay: summary table; soluble cynomolgus monkey L1CAM (monomer). The protocol: as §4
For assay [15], the target named is T2, human L1CAM on cells. Kind of assay: flow cytometry, HEK293T-hL1CAM cells, AlexaFluor 647 anti-human Fc secondary. The protocol:
as §1, §2

T2 sequence (P32004 20-1257): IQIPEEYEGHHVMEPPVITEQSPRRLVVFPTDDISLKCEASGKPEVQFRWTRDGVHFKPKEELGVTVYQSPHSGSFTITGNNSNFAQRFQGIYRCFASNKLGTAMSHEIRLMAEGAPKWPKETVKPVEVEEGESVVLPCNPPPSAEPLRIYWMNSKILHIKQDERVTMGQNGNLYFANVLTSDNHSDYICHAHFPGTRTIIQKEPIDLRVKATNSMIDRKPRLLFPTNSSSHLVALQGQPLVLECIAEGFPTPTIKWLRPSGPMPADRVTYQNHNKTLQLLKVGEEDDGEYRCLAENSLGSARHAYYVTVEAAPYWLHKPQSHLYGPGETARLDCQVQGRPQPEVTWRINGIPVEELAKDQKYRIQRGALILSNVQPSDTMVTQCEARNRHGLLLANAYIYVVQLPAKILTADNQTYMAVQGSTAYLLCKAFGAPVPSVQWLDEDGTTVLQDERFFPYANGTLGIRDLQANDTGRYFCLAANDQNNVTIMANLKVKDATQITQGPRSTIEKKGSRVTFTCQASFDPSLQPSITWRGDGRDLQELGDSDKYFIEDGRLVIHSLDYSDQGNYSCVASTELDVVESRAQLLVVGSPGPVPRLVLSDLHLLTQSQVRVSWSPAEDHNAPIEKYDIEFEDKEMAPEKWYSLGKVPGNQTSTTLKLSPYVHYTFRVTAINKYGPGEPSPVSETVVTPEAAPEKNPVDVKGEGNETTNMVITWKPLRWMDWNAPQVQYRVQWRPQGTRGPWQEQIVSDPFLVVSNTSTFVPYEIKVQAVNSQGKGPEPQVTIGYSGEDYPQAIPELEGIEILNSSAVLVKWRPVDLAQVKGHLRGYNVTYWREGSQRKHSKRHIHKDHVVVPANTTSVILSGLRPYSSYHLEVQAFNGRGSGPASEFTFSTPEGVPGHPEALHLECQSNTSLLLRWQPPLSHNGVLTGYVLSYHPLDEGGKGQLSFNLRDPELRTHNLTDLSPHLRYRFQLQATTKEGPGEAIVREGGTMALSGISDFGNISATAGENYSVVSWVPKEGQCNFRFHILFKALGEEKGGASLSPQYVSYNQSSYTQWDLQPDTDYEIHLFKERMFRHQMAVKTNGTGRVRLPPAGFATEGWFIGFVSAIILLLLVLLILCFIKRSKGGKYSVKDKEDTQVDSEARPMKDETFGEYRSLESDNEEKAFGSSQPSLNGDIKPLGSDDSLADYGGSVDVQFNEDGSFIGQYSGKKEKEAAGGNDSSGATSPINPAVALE
T3 sequence (P32004 20-1120): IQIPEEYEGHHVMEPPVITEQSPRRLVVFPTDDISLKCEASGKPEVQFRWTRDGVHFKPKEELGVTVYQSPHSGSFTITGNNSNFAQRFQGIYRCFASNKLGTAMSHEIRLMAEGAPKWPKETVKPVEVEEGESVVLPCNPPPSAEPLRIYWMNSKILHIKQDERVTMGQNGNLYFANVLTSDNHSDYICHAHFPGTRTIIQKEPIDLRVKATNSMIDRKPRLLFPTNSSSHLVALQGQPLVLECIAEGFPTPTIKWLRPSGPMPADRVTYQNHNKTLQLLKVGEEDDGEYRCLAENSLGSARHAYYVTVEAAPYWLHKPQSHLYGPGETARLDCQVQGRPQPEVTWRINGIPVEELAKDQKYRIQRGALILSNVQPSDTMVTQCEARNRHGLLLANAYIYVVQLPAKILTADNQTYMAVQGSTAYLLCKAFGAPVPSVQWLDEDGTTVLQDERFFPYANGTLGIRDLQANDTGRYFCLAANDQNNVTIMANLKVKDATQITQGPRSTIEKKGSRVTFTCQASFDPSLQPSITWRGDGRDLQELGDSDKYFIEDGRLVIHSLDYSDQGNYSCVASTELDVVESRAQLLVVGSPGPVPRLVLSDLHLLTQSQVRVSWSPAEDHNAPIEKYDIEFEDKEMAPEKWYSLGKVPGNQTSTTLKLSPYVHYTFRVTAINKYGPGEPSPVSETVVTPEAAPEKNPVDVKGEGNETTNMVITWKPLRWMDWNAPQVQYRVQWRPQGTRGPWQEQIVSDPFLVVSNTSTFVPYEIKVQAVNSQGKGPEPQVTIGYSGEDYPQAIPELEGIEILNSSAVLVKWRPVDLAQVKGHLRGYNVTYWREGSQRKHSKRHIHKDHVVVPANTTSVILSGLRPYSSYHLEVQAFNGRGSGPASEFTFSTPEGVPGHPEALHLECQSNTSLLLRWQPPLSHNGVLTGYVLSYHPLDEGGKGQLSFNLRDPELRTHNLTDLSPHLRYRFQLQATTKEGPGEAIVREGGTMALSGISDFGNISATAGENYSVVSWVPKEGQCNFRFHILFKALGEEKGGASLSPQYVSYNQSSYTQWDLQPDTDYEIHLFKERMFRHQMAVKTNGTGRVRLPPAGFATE
T4 sequence (P11627 20-1123 limits assumed): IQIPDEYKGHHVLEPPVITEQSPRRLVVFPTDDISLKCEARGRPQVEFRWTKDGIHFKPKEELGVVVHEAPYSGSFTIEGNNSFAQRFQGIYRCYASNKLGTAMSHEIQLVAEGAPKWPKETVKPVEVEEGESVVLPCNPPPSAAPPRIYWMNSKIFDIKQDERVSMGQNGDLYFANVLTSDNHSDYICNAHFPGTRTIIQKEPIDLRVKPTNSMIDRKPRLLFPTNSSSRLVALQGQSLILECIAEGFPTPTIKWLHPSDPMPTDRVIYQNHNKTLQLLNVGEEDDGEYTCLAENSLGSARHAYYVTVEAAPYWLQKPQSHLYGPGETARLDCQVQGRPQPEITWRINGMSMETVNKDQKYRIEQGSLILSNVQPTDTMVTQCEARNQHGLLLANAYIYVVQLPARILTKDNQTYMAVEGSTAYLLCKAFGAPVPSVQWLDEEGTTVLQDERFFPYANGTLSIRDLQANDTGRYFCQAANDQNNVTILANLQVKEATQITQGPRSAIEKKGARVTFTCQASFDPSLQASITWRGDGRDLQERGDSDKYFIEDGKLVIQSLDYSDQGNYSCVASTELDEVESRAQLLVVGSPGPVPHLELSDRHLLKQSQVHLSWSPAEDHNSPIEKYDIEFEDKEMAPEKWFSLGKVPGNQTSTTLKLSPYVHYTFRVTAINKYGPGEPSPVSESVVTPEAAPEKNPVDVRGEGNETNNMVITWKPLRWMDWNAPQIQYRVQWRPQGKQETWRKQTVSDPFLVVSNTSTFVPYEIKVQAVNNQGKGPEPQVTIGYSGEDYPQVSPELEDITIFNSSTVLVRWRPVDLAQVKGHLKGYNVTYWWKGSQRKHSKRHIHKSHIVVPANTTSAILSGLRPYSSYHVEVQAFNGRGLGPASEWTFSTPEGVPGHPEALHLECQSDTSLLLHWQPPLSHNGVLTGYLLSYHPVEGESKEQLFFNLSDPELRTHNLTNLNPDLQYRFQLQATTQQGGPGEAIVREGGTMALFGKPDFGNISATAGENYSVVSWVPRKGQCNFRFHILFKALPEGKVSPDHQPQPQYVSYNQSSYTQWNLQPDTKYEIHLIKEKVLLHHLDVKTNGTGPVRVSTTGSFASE
T6 sequence (P11627 20-1260): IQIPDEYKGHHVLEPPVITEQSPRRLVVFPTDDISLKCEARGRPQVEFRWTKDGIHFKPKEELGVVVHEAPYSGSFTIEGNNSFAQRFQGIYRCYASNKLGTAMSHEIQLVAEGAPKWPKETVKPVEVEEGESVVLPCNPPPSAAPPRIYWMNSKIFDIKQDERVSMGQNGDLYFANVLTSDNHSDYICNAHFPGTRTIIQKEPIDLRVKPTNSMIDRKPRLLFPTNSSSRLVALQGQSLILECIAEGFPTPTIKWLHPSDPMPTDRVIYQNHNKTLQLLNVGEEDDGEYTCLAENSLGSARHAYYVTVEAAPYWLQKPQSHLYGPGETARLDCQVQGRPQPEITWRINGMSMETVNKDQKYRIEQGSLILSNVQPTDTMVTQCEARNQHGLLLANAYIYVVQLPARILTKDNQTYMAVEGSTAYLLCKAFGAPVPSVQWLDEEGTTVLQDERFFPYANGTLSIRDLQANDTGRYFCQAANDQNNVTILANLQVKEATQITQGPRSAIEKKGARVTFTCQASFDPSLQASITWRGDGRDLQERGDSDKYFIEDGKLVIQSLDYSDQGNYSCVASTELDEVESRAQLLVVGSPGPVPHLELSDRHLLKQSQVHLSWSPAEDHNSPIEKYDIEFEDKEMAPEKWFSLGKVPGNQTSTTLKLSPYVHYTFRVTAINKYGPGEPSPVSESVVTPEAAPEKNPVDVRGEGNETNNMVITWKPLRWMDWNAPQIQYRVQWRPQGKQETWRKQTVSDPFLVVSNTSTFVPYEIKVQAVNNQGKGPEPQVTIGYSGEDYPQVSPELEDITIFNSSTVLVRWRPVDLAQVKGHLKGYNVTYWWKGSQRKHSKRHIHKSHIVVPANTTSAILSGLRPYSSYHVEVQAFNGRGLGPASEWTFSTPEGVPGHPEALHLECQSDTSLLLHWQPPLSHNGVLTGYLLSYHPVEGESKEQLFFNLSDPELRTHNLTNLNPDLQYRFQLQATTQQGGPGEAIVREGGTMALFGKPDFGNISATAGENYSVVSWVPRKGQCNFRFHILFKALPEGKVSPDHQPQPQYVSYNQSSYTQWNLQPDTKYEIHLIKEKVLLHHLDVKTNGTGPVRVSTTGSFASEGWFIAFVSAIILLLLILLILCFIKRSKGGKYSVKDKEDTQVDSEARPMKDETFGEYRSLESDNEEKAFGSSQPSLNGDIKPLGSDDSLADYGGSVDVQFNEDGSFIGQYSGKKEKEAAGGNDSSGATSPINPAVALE

B1: TDI-Y-004 (antibody, human IgG1, kappa, V domains shown)
VH: QVQLVQSGAEVKKPGSSVKVSCKASGYTFTNYYIHWVRQAPGQGLEWMGKIGPGSGSPYYQGMFKDRVTITADESTSTAYMELSSLRSEDTAVYYCARWLLPFDYWGQGTLVTVSS
VL: EIVLTQSPGTLSLSPGERATLSCRASSSVNYMHWYQQKPGQAPRLLIYATSILASGIPDRFSGSGSGTDYTLTISRLEPEDFAVYYCQQFSSDPLTFGGGTKVEIKR
notes: Human IgG1, kappa; also called humanized 143G03 (N61Q) mAb; hz143G03 (N61Q)
In general, EC50 refers to the concentration needed to bring the measured effect to its halfway point. One may read the Kd as the constant that tells how readily two partners part at equilibrium. One may read the koff as a measure of how fast the partners let go of each other. What is called kon is the second-order rate constant of association. Regarding B1, the binding result in assay [1] was “no binding (tested: 1 µM)”; in assay [5], “no binding (tested: dilution series starting at 50 nM)”; in [12], “no binding”. Besides, the EC50 was 2.5 nM with human L1CAM on cells [2]; 2.5 nM in the assay with human L1CAM on cells [4]; 2.2 nM with human L1CAM on cells [9]; 1.3 nM in the assay with human L1CAM on cells [10]; 1.3 nM in the assay with human L1CAM on cells [11]; 2.2 nM with human L1CAM on cells [15]. Moreover, the Kd in [3] is 0.35 nM; in [6], 0.3 nM; in [7] it was 0.35 nM; in [14] it was 0.3 nM. The koff in assay [3] came out at 9.5e-05 s⁻¹; in assay [6], 4.7e-05 s⁻¹; in assay [7] it was 9.5e-05 s⁻¹; in [14] it was 4.7e-05 s⁻¹. Also, the on-rate constant (kon) in assay [3] turned out to be 270000 M⁻¹ s⁻¹; in [6] it was 160000 M⁻¹ s⁻¹; in [7], 270000 M⁻¹ s⁻¹; in assay [14] it was 160000 M⁻¹ s⁻¹. Moreover, the “fold difference of KD against human L1CAM” value in assay [8] is at most 1.2 fold. Further, in assay [13], the “fold difference in KD against TDI-Y-005” value was about 10 fold.

The values are drawn from patent US20250340636A1 (Memorial Sloan Kettering, published 2025).
